In assay [1] the target is T1, rhEphA5 antigen (Homo sapiens, UniProt P54756).
T1 construct: purchased R and D systems 3036-A5
The assay can be described thus: kd (1/s). How it is done:
(§1) Table printed on a drawing sheet, FIG. 13
Head of the field: kd (1/s)
(§2) The patent's description of the figure: FIG. 13 is a table illustrating the single cycle kinetic parameters of chimeric (VH0/VK0) and humanized 11C12 variants (tested as cell culture supernatants) binding to rhEphA5 antigen as determined using the Biacore T200. The relative KD was calculated by dividing the KD of the humanized variant by that of the VH0/VK0 (top row) assayed in the same experiment. The variants marked with ‘*’ have KD values that are within two-fold of, or are better than, the chimeric antibody. The chimeric and selected variants marked in ‘#’ were identified as the main leads for purification. […]
(§3) Where the first naming reader finds the target: description_of_the_figure: humanized 11C12 variants (tested as cell culture supernatants) binding to rhEphA5 antigen as determined using the Biacore T200

Assay [2] concerns the target T1, rhEphA5 antigen. The assay can be described thus: KD (M). As to the method:
as §1
Head of the field: KD (M)
as §2, §3

Assay [3] concerns the target T1, rhEphA5 antigen. The assay can be described thus: ka (1/Ms). As to the method:
as §1
Head of the field: ka (1/Ms)
as §2, §3

The values below come from patent US12662541B2, “Antibody-drug conjugates against the receptor tyrosine kinase EphA5” (Rutgers, The State University of New Jersey, priority 2021, dated 2026).

As usually defined, the Kd is the constant that tells how readily two partners part at equilibrium. A lower Kd goes with tighter binding.

B1: VH2/VK3: humanized anti-EphA5 antibody, VH SEQ ID NO:3, VL SEQ ID NO:11 (antibody, V domains shown)
VH: EVTLVESGGGLVQPGGSLKLSCAASGFTFSTFGIHWVRQAPGKGLEWVAYISGASTTIYYADTVKGRFTISRDNSKNTLYLQMNSLRSEDTAMYYCARYGTSFPYGLDYWGQGTLVTVSS
VL: DIVMTQSPDSLAVSLGERATINCKASQSVDYDGDSYMNWYQQKPGKAPKLLIYGASNLESGIPDRFSGSGSGTDFTLTISRLEPEDAAVYYCQQSNEDPFTFGQGTKLEIK
In the case of B1, the “kd” value with rhEphA5 antigen [1] amounted to 0.00132 s⁻¹. Also, the affinity in the assay with rhEphA5 antigen [2], expressed as Kd, was 0.985 nM.

B2: VH4/VK5: humanized anti-EphA5 antibody, VH SEQ ID NO:5, VL SEQ ID NO:13 (antibody, V domains shown)
VH: EVQLVESGGGLVQPGGSLKLSCAASGFTFSTFGIHWVRQAPGKGLEWVAYISGASTTIYYADTVKGRFTISRDNSKNTLYLQMNSLRAEDTAVYYCARYGTSFPYGLDYWGQGTLVTVSS
VL: DIVMTQSPDSLAVSLGERATINCKSSQSVDYDGDSYMNWYQQKPGKAPKLLIYGASNLESGIPDRFSGSGSGTDFTLTISRLEPEDAAVYYCQQSNEDPFTFGQGTKLEIK
For the molecule B2, the “ka” value with rhEphA5 antigen [3] was 1.37e-06 M⁻¹ s⁻¹. Also, the “kd” value with rhEphA5 antigen [1] amounted to 0.00137 s⁻¹.

B3: VH6/VK3: humanized anti-EphA5 antibody, VH SEQ ID NO:7, VL SEQ ID NO:11 (antibody, V domains shown)
VH: EVQLVESGGGLVQPGGSLKLSCAASGFTFSTFGIHWVRQAPGKGLEWVASISGASTTIYYADSVKGRFTISRDNSKNTLYLQMNSLRAEDTAVYYCARYGTSFPYGLDYWGQGTLVTVSS
VL: DIVMTQSPDSLAVSLGERATINCKASQSVDYDGDSYMNWYQQKPGKAPKLLIYGASNLESGIPDRFSGSGSGTDFTLTISRLEPEDAAVYYCQQSNEDPFTFGQGTKLEIK
Consider B3, for which the “ka” value in the assay with rhEphA5 antigen [3] came out at 5.22e-09 M⁻¹ s⁻¹. Also, the “kd” value in the assay with rhEphA5 antigen [1] is 0.341 s⁻¹.

B4: VH6/VK2: humanized anti-EphA5 antibody, VH SEQ ID NO:7, VL SEQ ID NO:10 (antibody, V domains shown)
VH: EVQLVESGGGLVQPGGSLKLSCAASGFTFSTFGIHWVRQAPGKGLEWVASISGASTTIYYADSVKGRFTISRDNSKNTLYLQMNSLRAEDTAVYYCARYGTSFPYGLDYWGQGTLVTVSS
VL: DIVMTQSPDSLAVSLGERATINCKASQSVDYDGDSYMNWYQQKPGKAPKLLIYGASNLESGIPDRFSGSGSGTDFTLTISRLEPEDAASYYCQQSNEDPFTFGQGTKLEIK
With B4, in the assay with rhEphA5 antigen [3], the “ka” value turned out to be 1.74e-09 M⁻¹ s⁻¹.

B5: VH5/VK1: humanized anti-EphA5 antibody, VH SEQ ID NO:6, VL SEQ ID NO:9 (antibody, V domains shown)
VH: EVQLVESGGGLVQPGGSLKLSCAASGFTFSTFGIHWVRQAPGKGLEWVAYISGASTTIYYADSVKGRFTISRDNSKNTLYLQMNSLRAEDTAVYYCARYGTSFPYGLDYWGQGTLVTVSS
VL: DIVMTQSPGSLAVSLGERATINCKASQSVDYDGDSYMNWYQQKPGKAPKLLIYGASNLESGIPDRFSGSGSGTDFTLTISRLEEEDAASYYCQQSNEDPFTFGQGTKLEIK
B5: the “kd” value in the assay with rhEphA5 antigen [1] was determined as 0.00127 s⁻¹.

B6: VH6/VK4: humanized anti-EphA5 antibody, VH SEQ ID NO:7, VL SEQ ID NO:12 (antibody, V domains shown)
VH: EVQLVESGGGLVQPGGSLKLSCAASGFTFSTFGIHWVRQAPGKGLEWVASISGASTTIYYADSVKGRFTISRDNSKNTLYLQMNSLRAEDTAVYYCARYGTSFPYGLDYWGQGTLVTVSS
VL: DIVMTQSPDSLAVSLGERATINCKSSQSVDYDGDSYMNWYQQKPGKAPKLLIYGASNLESGIPDRFSGSGSGTDFTLTISRLEPEDAASYYCQQSNEDPFTFGQGTKLEIK
As to B6, the “kd” value with rhEphA5 antigen [1] amounted to 0.209 s⁻¹.

B7: VH4/VK1: humanized anti-EphA5 antibody, VH SEQ ID NO:5, VL SEQ ID NO:9 (antibody, V domains shown)
VH: EVQLVESGGGLVQPGGSLKLSCAASGFTFSTFGIHWVRQAPGKGLEWVAYISGASTTIYYADTVKGRFTISRDNSKNTLYLQMNSLRAEDTAVYYCARYGTSFPYGLDYWGQGTLVTVSS
VL: DIVMTQSPGSLAVSLGERATINCKASQSVDYDGDSYMNWYQQKPGKAPKLLIYGASNLESGIPDRFSGSGSGTDFTLTISRLEEEDAASYYCQQSNEDPFTFGQGTKLEIK
Consider B7, for which the “kd” value with rhEphA5 antigen [1] stood at 0.00129 s⁻¹.

B8: VH5/VK5: humanized anti-EphA5 antibody, VH SEQ ID NO:6, VL SEQ ID NO:13 (antibody, V domains shown)
VH: EVQLVESGGGLVQPGGSLKLSCAASGFTFSTFGIHWVRQAPGKGLEWVAYISGASTTIYYADSVKGRFTISRDNSKNTLYLQMNSLRAEDTAVYYCARYGTSFPYGLDYWGQGTLVTVSS
VL: DIVMTQSPDSLAVSLGERATINCKSSQSVDYDGDSYMNWYQQKPGKAPKLLIYGASNLESGIPDRFSGSGSGTDFTLTISRLEPEDAAVYYCQQSNEDPFTFGQGTKLEIK
Turning to B8, the “ka” value in the assay with rhEphA5 antigen [3] was 1.37e-06 M⁻¹ s⁻¹. Also, the “kd” value with rhEphA5 antigen [1] amounted to 0.0014 s⁻¹.

B9: VH4/VK2: humanized anti-EphA5 antibody, VH SEQ ID NO:5, VL SEQ ID NO:10 (antibody, V domains shown)
VH: EVQLVESGGGLVQPGGSLKLSCAASGFTFSTFGIHWVRQAPGKGLEWVAYISGASTTIYYADTVKGRFTISRDNSKNTLYLQMNSLRAEDTAVYYCARYGTSFPYGLDYWGQGTLVTVSS
VL: DIVMTQSPDSLAVSLGERATINCKASQSVDYDGDSYMNWYQQKPGKAPKLLIYGASNLESGIPDRFSGSGSGTDFTLTISRLEPEDAASYYCQQSNEDPFTFGQGTKLEIK
For B9, the “kd” value with rhEphA5 antigen [1] turned out to be 0.00114 s⁻¹.

B10: VH6/VK5: humanized anti-EphA5 antibody, VH SEQ ID NO:7, VL SEQ ID NO:13 (antibody, V domains shown)
VH: EVQLVESGGGLVQPGGSLKLSCAASGFTFSTFGIHWVRQAPGKGLEWVASISGASTTIYYADSVKGRFTISRDNSKNTLYLQMNSLRAEDTAVYYCARYGTSFPYGLDYWGQGTLVTVSS
VL: DIVMTQSPDSLAVSLGERATINCKSSQSVDYDGDSYMNWYQQKPGKAPKLLIYGASNLESGIPDRFSGSGSGTDFTLTISRLEPEDAAVYYCQQSNEDPFTFGQGTKLEIK
For B10, in the assay with rhEphA5 antigen [1], the “kd” value was 0.285 s⁻¹.

B11: VH1/VK3: humanized anti-EphA5 antibody, VH SEQ ID NO:2, VL SEQ ID NO:11 (antibody, V domains shown)
VH: EVTLVESGGGLVQPGGSRKLSCAASGFTFSTFGIHWVRQAPGKGLEWVAYISGASTTIYYADTVKGRFTISRDNSKNTLYLQMNSLRSEDTAMYYCARYGTSFPYGLDYWGQGTSVTVSS
VL: DIVMTQSPDSLAVSLGERATINCKASQSVDYDGDSYMNWYQQKPGKAPKLLIYGASNLESGIPDRFSGSGSGTDFTLTISRLEPEDAAVYYCQQSNEDPFTFGQGTKLEIK
As to B11, the “kd” value with rhEphA5 antigen [1] turned out to be 0.00125 s⁻¹. This molecule also yielded a Kd in the assay with rhEphA5 antigen [2] of 0.948 nM.

B12: VH6/VK1: humanized anti-EphA5 antibody, VH SEQ ID NO:7, VL SEQ ID NO:9 (antibody, V domains shown)
VH: EVQLVESGGGLVQPGGSLKLSCAASGFTFSTFGIHWVRQAPGKGLEWVASISGASTTIYYADSVKGRFTISRDNSKNTLYLQMNSLRAEDTAVYYCARYGTSFPYGLDYWGQGTLVTVSS
VL: DIVMTQSPGSLAVSLGERATINCKASQSVDYDGDSYMNWYQQKPGKAPKLLIYGASNLESGIPDRFSGSGSGTDFTLTISRLEEEDAASYYCQQSNEDPFTFGQGTKLEIK
Regarding B12, in the assay with rhEphA5 antigen [3], the “ka” value is 1.65e-09 M⁻¹ s⁻¹.
